Assay [1] addresses Cy5 N-terminal-labeled WWP2 (human) (UniProt O00308). As to the kind of experiment: MST; 10 nM N-terminal Cy5-labeled WWP2, NDP52 (up to 48 uM) or OPTN (up to 60 uM) in two-fold serial dilution; 25 mM Hepes pH 7.8, 250 mM NaCl, 1 mM TCEP, 0.5 mg/ml BSA, 0.05% Tween-20; room temperature; apparent KD, quadratic model.
The target in the next assay is PTEN (Homo sapiens) (UniProt P60484). To be noted: cited from earlier work.

These results are taken from PMC9034101.

Chain of Optineurin (Q96CV9 whole entry): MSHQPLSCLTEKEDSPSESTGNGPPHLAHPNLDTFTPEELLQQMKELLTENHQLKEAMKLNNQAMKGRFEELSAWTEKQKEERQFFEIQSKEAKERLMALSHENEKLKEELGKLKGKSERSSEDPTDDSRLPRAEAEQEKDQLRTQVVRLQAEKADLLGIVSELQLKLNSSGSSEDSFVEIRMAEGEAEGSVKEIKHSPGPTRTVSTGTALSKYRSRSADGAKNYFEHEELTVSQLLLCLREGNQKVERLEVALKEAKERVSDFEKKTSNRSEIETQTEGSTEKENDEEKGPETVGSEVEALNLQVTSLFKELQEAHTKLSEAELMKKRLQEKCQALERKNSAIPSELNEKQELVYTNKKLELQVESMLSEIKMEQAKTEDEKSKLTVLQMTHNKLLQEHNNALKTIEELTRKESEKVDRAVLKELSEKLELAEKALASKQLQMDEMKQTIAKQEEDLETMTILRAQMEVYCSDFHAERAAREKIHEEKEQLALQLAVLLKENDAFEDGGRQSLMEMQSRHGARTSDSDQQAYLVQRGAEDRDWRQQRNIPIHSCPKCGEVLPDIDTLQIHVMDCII
Chain of WWP2 (O00308 whole entry): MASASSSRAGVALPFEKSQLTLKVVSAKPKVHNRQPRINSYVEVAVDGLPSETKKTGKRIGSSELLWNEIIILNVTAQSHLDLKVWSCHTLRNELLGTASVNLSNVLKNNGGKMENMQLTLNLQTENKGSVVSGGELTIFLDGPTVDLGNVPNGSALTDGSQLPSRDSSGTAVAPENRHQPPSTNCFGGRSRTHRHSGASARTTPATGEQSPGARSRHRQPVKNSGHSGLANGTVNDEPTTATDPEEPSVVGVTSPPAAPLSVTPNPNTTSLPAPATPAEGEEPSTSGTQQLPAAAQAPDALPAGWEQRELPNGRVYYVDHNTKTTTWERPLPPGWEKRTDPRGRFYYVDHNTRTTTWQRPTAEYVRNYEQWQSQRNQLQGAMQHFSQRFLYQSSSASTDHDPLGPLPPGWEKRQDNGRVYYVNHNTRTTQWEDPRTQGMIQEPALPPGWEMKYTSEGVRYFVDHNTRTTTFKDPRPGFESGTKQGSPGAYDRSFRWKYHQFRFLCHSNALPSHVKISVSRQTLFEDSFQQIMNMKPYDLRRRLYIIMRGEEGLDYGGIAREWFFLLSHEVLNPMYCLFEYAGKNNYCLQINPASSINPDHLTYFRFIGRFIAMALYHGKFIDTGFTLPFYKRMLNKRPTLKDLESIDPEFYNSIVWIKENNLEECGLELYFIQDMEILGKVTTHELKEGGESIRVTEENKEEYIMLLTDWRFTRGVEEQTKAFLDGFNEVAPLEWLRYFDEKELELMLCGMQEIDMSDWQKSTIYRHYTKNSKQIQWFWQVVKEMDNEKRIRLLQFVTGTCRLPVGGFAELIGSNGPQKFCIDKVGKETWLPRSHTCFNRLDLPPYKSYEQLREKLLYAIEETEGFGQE
Chain of PTEN (Homo sapiens) (P60484 2-403): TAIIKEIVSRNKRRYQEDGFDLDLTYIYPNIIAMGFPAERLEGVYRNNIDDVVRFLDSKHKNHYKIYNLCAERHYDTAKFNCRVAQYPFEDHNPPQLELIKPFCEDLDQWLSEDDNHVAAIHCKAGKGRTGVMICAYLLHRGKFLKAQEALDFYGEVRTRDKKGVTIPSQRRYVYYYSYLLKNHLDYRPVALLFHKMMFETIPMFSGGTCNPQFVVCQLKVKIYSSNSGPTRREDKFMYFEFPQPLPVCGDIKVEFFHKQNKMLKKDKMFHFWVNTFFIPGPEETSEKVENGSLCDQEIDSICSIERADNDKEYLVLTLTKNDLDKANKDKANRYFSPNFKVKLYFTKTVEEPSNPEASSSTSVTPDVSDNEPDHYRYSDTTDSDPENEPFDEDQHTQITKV

Turning to “Optineurin (from UniProt Q96CV9 1-577) (natural protein)”, in assay [1], the Kd was 39 µM.
WWP2 (from UniProt O00308): in the assay with PTEN (Homo sapiens), the Kd was 20 µM.
